A short description of the data set: label from the status in PepcDB records.
Take “MYKATVIIKLKKGVLNPEGRTIQRALNFLGFNNVKEVQTYKMIDIIMEGENEEKVKEEVEEMCKKLLANPVIHDYEIKVEKIE”: the protein production result is “not failed”.
As for “MYKDKVAVIMSVYKSDNPIDFNVAVNSIIRQTLKCDIFIYQDGPVSRELKSAINRFRKFNNIFIFVSEENKGLAYALNYLIDSCLLNNYQYIARMDSDDISHKNRMSIQVNFLEDNSDIHVVGSYCKEFGADCSLAEKKLPITHNDLLNFSITRCPFIHPSVMFRTSIFYNGLRYPVNTKYTEDMAFWFILLDLGYKFENIPETLIDYRMTENTVLRRRGFDKALSEVFIRFKYMIKFKKITVKNVSFIIGRFVFHLLPPNAIKYLYKKMR”, the protein production entry is recorded as “failed”.
Regarding “MYKEGACLYRNPLRSKSDVKDWRMEGGGQISFDDHSLHLSHVQDEAHFVFWCPETFPDGIIVTWDFSPIEQPGLCMLFFAAAGIRGEDLFDPSLRKRTGTYPEYHSGDINALHLSYFRRKYAEERAFRTCNLRKSRGFHLAAMGADPLPSPDDADSPYRMKLIKDKGYVHFSINGLPILEWMDDGSTYGPVLTKGKIGFRQMAPMKAVYRDFAVHQAVRR”, the protein production entry was “not failed”.
Regarding “MYKHILVPVDLNEQGFADKAVQLAVWHAKHSNAEIHLLNVLPGIHMSMVATYFPKDAAAQMKNDVRAQLKAFAEKHIAEEVVYKLHIAEGKPYATILDYAERLGADLIVMPSHKRSRIDKVMLGSVASKVVENSPINVMVVKPQG”, the protein production entry is “not failed”.
In the case of “MYKLGVFLLATLLSANTQKVSDIAKDIQHKETLLKKTHEEKNQLNSRLSSLGEAIRSKELQKAEMERQMIALKKSLEKNRNESLAQEKVLTNYRKSLDHLQKKRSFLQKRVFDTLLQDFLFSQALKGQNLASSNDVVLQVAFENLHQSTLSKMSQLSQEEKELNTQALKVKNSIQKISSIIDEQKTREVTLKSLKTEQDKLILSMQKDYAIYNQRLTLLEKERQNLNALLKRLNIIKQNRENEEKVSLKKSSQALEVKQVASSYQNINTTSYNGPKTIAPLNDYEVVQKFGPYIDPVYNLKIFSESITLVSKTPNALVRNVLDGKIVFAKEINMLKKVVIIEHKNGIRTIYSQLDKIAPTIKSGMRIQKGYVLGRIDQRLGFEVTMREKHINPLELIARN”, the protein production entry is “failed”.
In the case of “MYKTIIMPVDVFEMALSDKAVRHAEFLAQQDGVIHLLHVLPGSASFTMSRFTADLRRFEEHLQHEAETRLQTMVSHFSIDPSRIKLHVRFGSVRDMVNELASEINADVVVIGSRNPSISTHLLGSNASSVIRHAHIPVMVVR”, the protein production entry is “failed”.
Take “MYLLNDKVAHELKKPFGKVYKELPSIEGKVVSIGDVTTKHLLSNGIIPDLSILDFKTKRNIPVDIPHKFKTIFEVENPQGCISDEAIERIKYLSTIHDRDMALIIKGEEDLLTIPVIKYFPEDTSVIYGQPDEGMVLLKITDELKQKIEKLLKEMEER”: the protein production entry was “failed”.
“MYLNPKLSYMQFFMGFLFVITFILATFNICSYLVAIVCMALLNLTFVIGAFQQKQYTSFVIALVMSFSFSIVAIVFYIK”: the protein production entry was “failed”.
For “MYLSLLKSLNRLSPRAWDFVQLTRIDKPIGIYLLLWPTLWAVWIAGKGSPSLNTVFIFVAGVFLMRAAGCVINDFADRKVDGHVKRTEQRPLVSGKVSSREALVLFAVLVSLSFVLVLFTNSTTIWLSFGGLALAACYPFMKRYTYYPQVVLGAAFSWGMPMAFTAETGELPAAAWLLYIANLLWTVGYDTYYAMVDRDDDLKIGVKSTAVLFGDADRVIILSLQGLALGCLALAGSRFELGAFFYMGLLVAAACFAWEFWSTRLRERDACFKAFLHNHWAGLAIFLGIVADYALR”, the protein production result is recorded as “failed”.
The result for “MYLYLSLILLAFTLSLDSCSVGLTYGLRSVRIPLRSIIIIGMCSAAVMLVSMGIGHMIAKVFSPVIATRIGGLVLIGIGIWVLYQFFRSERKEEPKQEEKVWKLEIASLGLVIQILRKPTVADFDKSGTISAGEALLLGIALSVDSFGAGIGASLLGYAPAMMAILVAVMSSLFLFIGMKLGTVLSNMKWLQKFTFLPGVLLIIIGIWKM” reads “failed”.
Under “MYMDHFPTFGGYIFSMATYYSLIPLTLLIALRAKWDYIMRHYWRSVARGFIIAILIALPVTSILQFKLTGDYLYVYSLTKTGVCITSSCLISRMKENEYYKFNVTGLQKYGIPNLGIMQAYRLVDKKFNKLKWRYDVVNAVVIIRSLFPLPITEVWSYEVDPKESHKIIGLRKFYVYYPYNPGTLLSRAYDFEFTMFLWGSGGGVA” stands “failed”; under “MYMSSLQSTRERVLGTPRRRYKVLVAKMGLDGHDRGAKVVARALRDAGFEVVYTGLRQTPEQVAMAAVQEDVDVIGVSILNGAHLHLMKRLMAKLRELGADDIPVVLGGTIPIPDLEPLRSLGIREIFLPGTSLGEIIEKVRKLAEEKRMREEAEASEQVGQA”, “not failed”.
As for “MYNTVVYSIVVPLYNEELVIDENYMRLKKIMDSLKENYEIMYVNDGSKDSTMNKVEKICEKDKRIKLVNFSRNFGHQCAISAGMELSAGDAIIVIDADLQDPPEVIPQMIDKWKDGYDVVYGKRLKRKGESFLKKFTAKIFYRLLRSITNIDIPVDTGDFRLIDRKVCDTLSSLPERNRYVRGLVSWVGFKQTFVEFTRQERFAGASKYPLKKMLKLAFDGITSFSYKPLVASTYLGGLMFLLGLLAFIYVTAKNLYSHKTILTLGLILAINLCMFGLIFIILGILGQYIGRISDESKARPNYIIASTINYKENIKEVEPSEVKLN”, the protein production entry was “failed”.
For the sequence “MYPSSSPGHRQYFLGVKSSLPLLWLMVFPALIGGVLNINPVQAQGTPYIPPPITPPPLSPSENPFDPSLFPTDPLIPSGETLTPLQRRRLIEALDALEAEALVLDQAGQGDQAFEVRYRSLRGRQRLGDLAEVEALGRIGAIAWEQGRNQDVMAIGQRLEDLQLSLTKDKAMSPELLTAFAKAYGQLHSLDSAIAVYQQMRREAQQQGDYRRENQALSMLGELYLAKFNYPAAAEVYETLLARATNARNSYYEGIYLQKLGEIYQQSAQPDNAIRIKEQLVQRRLQDGKPELVPDIQIAIGDHYLELEQPENASQAYQKAYTLAWSIKQLSTAAIALDKLGDLYLFSEQPNYALQIYKQLLQVQQQSYNYYGMMITYEKIAQLYIDAQQTSAALTAYQQALSLARSLKYSTKENNILNQIQTISGGTGS”, the protein production result was “failed”.
With “MYPYIKLIATLFRAKNSPQMNLDEKSVLNCRAGLTDIDVFVELNNARHLTYMEFGRWDFAQRTGLLSLMRKNKWAFAVGGASVRYRRRIAFWKKFTVTTQVICHDGRWFYFLQETHIKDKVCSSALIKAAFTSKQGLVPATEVLAAYGKTTPNFDVPDWVNAWIDAESQRPWPLEHHHHHH”, the protein production result was “not failed”.
In the case of “MYQDRQGVVGGGGGGGSAPHGIILAVVVALVVLVPFFIGDSGEAITDAIAELLSPVGLLLLPIILLLTIQFLSSERGSFVSAIFSTGEPESIHRVSGSPVGVALFLVLILFLLYYRFSIFGGDDGSDD”, the protein production result is given as “failed”.
As for “MYQTQTNKEKFVLFLKLFIPVLIYQFANFSATFIDSVMTGQYSQLHLAGVSTASNLWTPFFALLVGMISALVPVVGQHLGRGNKEQIRTEFHQFLYLGLILSLILFLIMQFIAQPVLGSLGLEDEVLAVGRGYLNYMLIGIMPLVLFSICRSFFDALGLTRLSMYLMLLILPFNSFFNYMLIYGKFGMPRLGGAGAGLGTSLTYWAIFIVIIIVMSLHPQIKTYHIWTLERIKAPLIIEDIRLGLPIGLQIFAEVAIFAVVGLFMAKFSSIIIAAHQAAMNFSSLMYAFPLSISTALAITISFEVGAERFQDANTYSRIGRLTAVGITSGTLLFLFLFRENVAAMYNSDPHFVAITAQFLTYSLFFQFADAYAAPVQGILRGYKDTTKPFMIGAGSYWLCALPLAVILEKNSQLGPFAYWIGLITGIFVCGLFLNQRLQKIKKLYY”, the protein production entry is reported as “failed”.
“MYRIIEAPNSGKYPFSHSLLIGKSCIIDTGSGEALAPLRVDCVLNTHWHEDHIAMNSIGRKVLAHPLDAEAIESYEEFRRRYGIGDSVRLFINFEFGQVDDVFEDGEQLEFEGVSVEVIHTPGHSAGHCCFVINNEAVFLGDIDLTSFGPWYGCLDCDVDDFVRSVKKMMREVERRDIEIAIPSHGRPVYGKEEIIGAMREYLKKIFERDKAIRELVRLGVDPVGKGIIYRKIPEPREIYLHFEKIMVEKHLTTSLDEFCLDLEHHHHHH”: the protein production entry is listed as “failed”.
As for “MYRLLALFVPPEAAFRTGRGFSFDAGEVTGAIGDSVTVLPLVVALGLLTPASLPHLLAGFGVFQVIWGLYYGVPLSVEPMKALAGLAIAGTLSHGGLVAAGLVAGGVLLVAGRTGSLSWIQQFVGEPVVRGVQFAVACLLVVAAVDLVAGSVGIAAAGAGLALVVALVSRNAVALVVLAVGAVWAATAGGIPAPAAPSLELFPAGGPTLSVGAIEGLLAQLAMTVGNAAVATSLLLSDLYDAEISPDRLADSMGAMNLAAVPLGAVPMCHGSGGLAGKHAFGARTGTANLVAGGFYAGLALVAGLLAAFPMALLGVLLVVVAASLSRVAFTKTDRRLFVAGVGGLAVVTNVAVAFVAATLWWQLRG”, the protein production result is given as “failed”.
With “MYRMDKYTIGLIRVITLEDKEILNLHGRIIESAFPELKVVSRCIEDQPKGIYNEETEREAEPKIIRLAKEFEREGVDAIIISCAADPAVEKVRKLLSIPVIGAGSSVSALALAYGRRVGVLNLTEETPKVIRSILGNNLIAEDHPSGVSNTLDLLTDWGRREVINAAKRLKEKGVEVIALGCTGMSTIGIAPVLEEEVGIPVIDPVIASGAVALHALKRREVKRFEGR”, the protein production result was “not failed”.
The result for “MYRTTGPALRPGGFELTDWAVEHCRFQAGDRILDVGCGRGATVDRLRSHYHLEAYGIDPSATLLTLGQETYPDLPLSKARGEDIPFTNSCFDGVFVECSLSLMTDPDQALSEIRRVLKVKGKLIIHDVYARNPQGTPDLRELSIGTCIRNALVKEDLEHGLESKGLRTIHWQDHSPLLNRLMMELIMTHGSMSAFWLKSTHCSADSNRVQAALKKAKVGYFQLIAEKEAEKEAEHCPVR” reads “failed”; that for “MYSELKEGVNLYNKKDYQEALVFFLSVSTEDVLIKIEINYYIGLIYSRLSEYEQALEYLEQVVTASKDIAKVYQCRLILAFIYANTGRTRLAEFELSKLIEAGYESVQVFSSLAYVYYEHHEIEKAIDYYEKALKTAPENSTALNGLAYILAETDRDLTRSLLLCKKAVEKQPENPAYLDSMALIYHKMNLPSEAKSYITRAKEKLPDNKIILKHFEMISSDAREA”, “failed”.
As to “MYTYSLLNLSHCRRQTRKKRKTDHTEGFLMEETKPKTVEDVETVDVYTAKGFLSTGHRYLDVRTNEEFAKSHVEEALNIPYMFKTDEGRVINPDFLSQVASVCKKDEHLIVACNAGGRGSRACVDLLNEGYDHVANMGGGYSAWVDAGFAGDKPPEDLKIACKFRPKEN”, the protein production entry was “failed”.
On to “MYYLFIFEMLWLLFVIVFVSFLSFSDFDRKKVNYFSVVIVGILLSITAGFRNVGGVDTDYAIYKNHYNGELGSYSYELFEPGYNTVVWLGNIVGLSFNLFVFILTSICLLLLLKLIFKYSKYPMLSVMIYLGTYFLFYNMVLMRQMVSVVMFLYCINYTIEKKYIKCLLCFLVGLSFHLSMIVFLPAFFVLRYFKLNIWNIIFILIIGVFLKIVGAINLVMFVGGVIESRMANYLAGDGFTLNIMEYIKMIIIICAILILFPKLIGDYFNEILIKSYCVFFILIFAFGDIEIFFRIAMYFDLVILFLIPILFDKISMTRFSRITIYTLVVIFFAFSFIYRVHNFDNGEFYQYKFFFLE”, for which the protein production result is “failed”.
Turning to “NAVHFGAGNIGRGFIGKLLADAEVEVTFADVDVPLVDQLSHKQEYKVKVVGTECKIDTVTHVTAVNSASEDVIDRIVKTDLVTTAVGPNVLDIIAKTIAKGIAKRFEAGNDAPLNIIACENMVRGTTHLKGEVYKHLDKSLHAKADELVGFVDSAVDRIVPPAEAANDDPLEVTVESFSEWIVDEQQFKGDIPNIAGMEKTNN”, the protein production entry is recorded as “not failed”.

The values above are taken from a protein production outcome set (Wang et al. 2014).
